The values that follow come from IntAct's records for PubMed 29039417.

B1: BBSome complex member BBS1 (Homo sapiens), Q8NFJ9 (parent)
chain: MAAASSSDSDACGAESNEANSKWLDAHYDPMANIHTFSACLALADLHGDGEYKLVVGDLGPGGQQPRLKVLKGPLVMTESPLPALPAAAATFLMEQHEPRTPALALASGPCVYVYKNLRPYFKFSLPQLPPNPLEQDLWNQAKEDRIDPLTLKEMLESIRETAEEPLSIQSLRFLQLELSEMEAFVNQHKSNSIKRQTVITTMTTLKKNLADEDAVSCLVLGTENKELLVLDPEAFTILAKMSLPSVPVFLEVSGQFDVEFRLAAACRNGNIYILRRDSKHPKYCIELSAQPVGLIRVHKVLVVGSTQDSLHGFTHKGKKLWTVQMPAAILTMNLLEQHSRGLQAVMAGLANGEVRIYRDKALLNVIHTPDAVTSLCFGRYGREDNTLIMTTRGGGLIIKILKRTAVFVEGGSEVGPPPAQAMKLNVPRKTRLYVDQTLREREAGTAMHRAFQTDLYLLRLRAARAYLQALESSLSPLSTTAREPLKLHAVVQGLGPTFKLTLHLQNTSTTRPVLGLLVCFLYNEALYSLPRAFFKVPLLVPGLNYPLETFVESLSNKGISDIIKVLVLREGQSAPLLSAHVNMPGSEGLAAA
partner: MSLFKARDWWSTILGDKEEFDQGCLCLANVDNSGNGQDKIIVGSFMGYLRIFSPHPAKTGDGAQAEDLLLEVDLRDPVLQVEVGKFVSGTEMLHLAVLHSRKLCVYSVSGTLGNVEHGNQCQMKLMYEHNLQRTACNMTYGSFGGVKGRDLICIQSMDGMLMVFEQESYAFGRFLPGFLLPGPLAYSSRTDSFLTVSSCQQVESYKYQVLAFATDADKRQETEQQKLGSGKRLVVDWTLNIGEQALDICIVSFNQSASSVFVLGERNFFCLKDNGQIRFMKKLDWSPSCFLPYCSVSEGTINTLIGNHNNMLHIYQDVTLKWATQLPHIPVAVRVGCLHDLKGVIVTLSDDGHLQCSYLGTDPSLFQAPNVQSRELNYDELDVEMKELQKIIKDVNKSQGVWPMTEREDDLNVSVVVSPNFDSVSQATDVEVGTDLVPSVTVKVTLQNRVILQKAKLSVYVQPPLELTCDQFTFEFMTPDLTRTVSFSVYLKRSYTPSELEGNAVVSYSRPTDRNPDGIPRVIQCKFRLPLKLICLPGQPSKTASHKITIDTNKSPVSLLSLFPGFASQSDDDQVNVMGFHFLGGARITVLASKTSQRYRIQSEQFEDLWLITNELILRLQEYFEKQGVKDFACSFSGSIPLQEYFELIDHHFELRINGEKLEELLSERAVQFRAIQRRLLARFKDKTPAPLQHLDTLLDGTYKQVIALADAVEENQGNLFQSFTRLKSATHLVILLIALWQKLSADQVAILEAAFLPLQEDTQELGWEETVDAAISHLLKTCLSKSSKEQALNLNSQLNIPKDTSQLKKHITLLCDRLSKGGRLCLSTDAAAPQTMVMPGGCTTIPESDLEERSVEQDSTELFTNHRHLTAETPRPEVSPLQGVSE

The first assay covers variants of B1. The settings on record: with pthb1_human BBS9, Q3SYG4.
Take F499E: the “effect of a mutation on the interaction” value is listed as “disrupting interaction strength”.

As for F499A, the “effect of a mutation on the interaction” value is “with no effect”.

Turning to F499K, the “effect of a mutation on the interaction” value was “with no effect”.

With L459K, the “effect of a mutation on the interaction” value is on record as “with no effect”. The same measure, in the same setting: then L459E, with “with no effect”.

On to L459S, for which the “effect of a mutation on the interaction” value was “disrupting interaction strength”. With L459A, the “effect of a mutation on the interaction” value is listed as “with no effect”.

As to S474A, the “effect of a mutation on the interaction” value is “with no effect”.

In the case of S474E, the “effect of a mutation on the interaction” value is given as “with no effect”. Still for that read-out and setting: then S474K, with “with no effect”; and R483E, with “with no effect”.

As to R483K, the “effect of a mutation on the interaction” value is listed as “with no effect”. On the same count and under the same terms, with R483A the entry was “with no effect”; with A451K, “with no effect”; with A451E, “with no effect”. The same measure, in the same setting: with T480K the entry was “with no effect”; with T480A, “with no effect”. Turning to T480E, the “effect of a mutation on the interaction” value is “with no effect”. Still for that read-out and setting: with L503A the entry was “with no effect”; with L503E, “disrupting interaction strength”; with L503K, “disrupting interaction strength”. As for S476A, the “effect of a mutation on the interaction” value was “with no effect”. On the same count and under the same terms, with S476K the entry was “with no effect”; with S476E, “with no effect”; with V492E, “with no effect”.

Consider V492K, for which the “effect of a mutation on the interaction” value is listed as “with no effect”.

As to V492A, the “effect of a mutation on the interaction” value is given as “with no effect”. The same measure, in the same setting: then P485K, with “with no effect”; and P485E, with “with no effect”.

P485A: the “effect of a mutation on the interaction” value was “with no effect”. Same read-out and setting: with L475A the entry was “with no effect”; with L475K, “with no effect”; with L475E, “with no effect”. In the case of T498K, the “effect of a mutation on the interaction” value is reported as “with no effect”. Consider T498A, for which the “effect of a mutation on the interaction” value is listed as “with no effect”. T498E: the “effect of a mutation on the interaction” value is on record as “with no effect”. Still for that read-out and setting: then H504K, with “with no effect”; and H504E, with “with no effect”; and H504A, with “with no effect”. The same measure, in the same setting: with L501K the entry was “disrupting interaction strength”; with L501E, “disrupting interaction strength”; with L501A, “disrupting interaction strength”. On the same count and under the same terms, then V491A, with “with no effect”; and V491E, with “with no effect”. In the case of V491K, the “effect of a mutation on the interaction” value is on record as “with no effect”.

Q453E: the “effect of a mutation on the interaction” value was “with no effect”. Same read-out and setting: with Q453K the entry was “with no effect”.

In the case of Q453A, the “effect of a mutation on the interaction” value is “with no effect”.

For the variant L505A, the “effect of a mutation on the interaction” value is given as “with no effect”. Regarding L505E, the “effect of a mutation on the interaction” value is reported as “disrupting interaction strength”. Take L505K: the “effect of a mutation on the interaction” value is “disrupting interaction strength”. On the same count and under the same terms, with L505P the entry was “disrupting interaction strength”.

As for L486K, the “effect of a mutation on the interaction” value is reported as “disrupting interaction strength”. Same read-out and setting: with L486A the entry was “with no effect”; with L486E, “disrupting interaction strength”; with T508E, “with no effect”.

On to T508K, for which the “effect of a mutation on the interaction” value is listed as “with no effect”. Same read-out and setting: then T508A, with “with no effect”; and F452K, with “with no effect”; and F452C, with “disrupting interaction strength”. Still for that read-out and setting: then F452A, with “with no effect”; and F452E, with “with no effect”; and A466K, with “with no effect”. A466E: the “effect of a mutation on the interaction” value was “with no effect”. In the case of S509A, the “effect of a mutation on the interaction” value is listed as “with no effect”. Same read-out and setting: then S509K, with “with no effect”; and S509L, with “disrupting interaction strength”. On the same count and under the same terms, then S509E, with “with no effect”; and L488E, with “with no effect”; and L488A, with “with no effect”. Same read-out and setting: then L488K, with “with no effect”; and G496E, with “with no effect”.

Turning to G496K, the “effect of a mutation on the interaction” value was “with no effect”. Still for that read-out and setting: with G496A the entry was “with no effect”; with L495K, “with no effect”. Regarding L495A, the “effect of a mutation on the interaction” value is “with no effect”. Still for that read-out and setting: then L495E, with “with no effect”; and P497K, with “with no effect”; and P497E, with “with no effect”. Same read-out and setting: with P497A the entry was “with no effect”; with N507K, “with no effect”. Same read-out and setting: then N507E, with “disrupting interaction strength”.

Turning to N507A, the “effect of a mutation on the interaction” value is given as “with no effect”. Regarding L478A, the “effect of a mutation on the interaction” value is listed as “with no effect”. The same measure, in the same setting: then L478E, with “with no effect”; and L478K, with “with no effect”. On the same count and under the same terms, with K500E the entry was “with no effect”.

As for K500A, the “effect of a mutation on the interaction” value was “with no effect”.

The variants in the next assay derive from B1. As to conditions: with pthb1_human BBS9, Q3SYG4. The source holds these as a separate data set.
For the variant N507E, the “effect of a mutation on the interaction” value was “with no effect”.
